Assay results: publication PMC10715180

Tests used:
Assay in all cases: EMSA
Conditions in all cases: […] (binding temperature not stated)
[1] = target: PhoP D71N D71N (Mycobacterium abscessus subsp. massiliense CIP108297 (Mmas; subspecies name implied?)) (UniProt B1MHU9)
[2] = target: PhoP K224A K224A (Mycobacterium abscessus subsp. massiliense CIP108297 (Mmas; subspecies name implied?)) (UniProt B1MHU9)
[3] = target: PhoP (PhoPmas) WT, unphosphorylated (Mycobacterium abscessus subsp. massiliense CIP108297 (Mmas; subspecies name implied?)) (UniProt B1MHU9)

## AGGTAATCTTCCCCCCAAAATTTACGATGCGCTGGATCTTCACTGTGAGCTTCCTGTGAGTTACTCACAGCAGATTGTCAGCCAACCGCGCCAGGTCGCCCTACAGTTGAGCC (double strand) [phoP promoter probe WT]
[1]
  binding: binds more weakly
[2]
  binding: no binding
[3]
  binding: binds
